Assay [1] concerns the target T1, peptide 2 (synthetic peptide corresponding to the epitope for mAb 12H06) (human).
T1 peptide: RPYYQGLIDKYC
Briefly: peptide preincubation (one hour), then immunoblot. How it is done:
(§1) FIG. 4A and FIG. 4B depict images of immunoblots showing confirmation of specific antibody epitopes by blocking mAb binding to endogenous MIOX. (FIG. 4A) The peptides corresponding to the epitopes for mAb 01D10 (peptide 1) and mAb 12H06 (peptide 2) were synthesized. mAb 01D10 was pre-incubated for one hour with buffer alone, 100 μg/ml peptide 1, or 100 μg/ml peptide 2. (FIG. 4B) Western inhibition of mAb 12H06 using either peptide 1 or peptide 2.
(§2) The linear epitopes of the anti-MIOX antibodies were determined by use of spot-peptide membrane arrays containing the full length amino acid sequence of MIOX. The two mouse monoclonal antibodies mapped to opposite ends of the MIOX sequence (FIG. 3B). The antibody designated 01D10 mapped to the N-terminal sequence of MIOX (FIG. 3C). The peptide spots were decoded to reveal the sequence P9-V21. The mouse monoclonal antibody designated 12H06 mapped to the C-terminal region of MIOX (FIG. 3C). The peptide spots were decoded to reveal the epitope sequence R268-C279. […] The peptide epitope recognized by the 12H06 mouse monoclonal antibody was 100% identical to the corresponding mouse and rat Miox peptide sequence. The peptide epitope recognized by the 01D10 mouse monoclonal antibody was 92% identical to the corresponding mouse and rat Miox peptide sequence. […]
For orientation: In western blotting, separated proteins are transferred to a membrane and probed.

The target in assay [2] is T2, rat myo-inositol oxygenase (Miox) (rat, UniProt Q9QXN4 1-285).
T2 construct: also called rat Miox; rat MIOX
T2 sequence (looked up): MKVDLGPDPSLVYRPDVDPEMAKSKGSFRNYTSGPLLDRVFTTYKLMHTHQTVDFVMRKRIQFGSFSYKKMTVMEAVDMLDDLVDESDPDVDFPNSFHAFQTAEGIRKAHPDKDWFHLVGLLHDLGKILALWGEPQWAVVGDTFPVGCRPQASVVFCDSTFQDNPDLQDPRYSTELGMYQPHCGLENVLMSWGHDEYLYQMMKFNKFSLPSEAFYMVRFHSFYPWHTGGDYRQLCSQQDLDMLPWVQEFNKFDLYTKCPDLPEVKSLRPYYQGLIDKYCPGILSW
Nature of the assay: Western blot of rat kidney homogenate. How it is done:
(§3) The cross-species immunoreactivity of the anti-MIOX monoclonal antibodies was investigated (FIG. 3D,E). Human, mouse, and rat kidney homogenates were separately probed with both monoclonal anti-MIOX antibodies.
(§4) Normal human kidney homogenate was purchased from G-Biosciences (NLH-04, G-Biosciences). Mouse and rat kidney homogenate was purchased from G-Biosciences, St. Louis, Mo. Western blotting was performed as previously described (Laterza O F, et al. Clin Chem 2006; 52:1713-1721). Blots were probed with 0.004 mg/mL of the rabbit polyclonal anti-MIOX antibody R9544 or 0.004 mg/mL of either the 01D10 or 12H06 mouse anti-MIOX monoclonal antibody. Where indicated, both monoclonal antibodies were used simultaneously, each at the above concentrations.

Assay [3] concerns the target T3, peptide 1 (synthetic peptide corresponding to the epitope for mAb 01D10) (human).
T3 peptide: PSLVYRPDVDPEV
Nature of the assay: peptide preincubation, then immunoblot. How it is done:
as §1, §2

In assay [4] the target is T4, mouse myo-inositol oxygenase (Miox) (mouse, UniProt Q9QXN5 1-285).
T4 construct: also called mouse Miox; mouse MIOX
T4 sequence (looked up): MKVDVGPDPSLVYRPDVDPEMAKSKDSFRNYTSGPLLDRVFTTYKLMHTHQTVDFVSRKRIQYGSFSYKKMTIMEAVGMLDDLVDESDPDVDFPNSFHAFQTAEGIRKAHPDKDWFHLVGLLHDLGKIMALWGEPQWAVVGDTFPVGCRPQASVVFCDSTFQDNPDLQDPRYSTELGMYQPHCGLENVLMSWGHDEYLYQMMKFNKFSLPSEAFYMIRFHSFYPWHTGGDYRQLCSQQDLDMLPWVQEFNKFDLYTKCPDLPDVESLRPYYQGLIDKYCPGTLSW
Nature of the assay: Western blot of mouse kidney homogenate. How it is done:
as §3, §4

B1: mouse monoclonal anti-MIOX antibody 01D10 (antibody, IgG2b, V domains shown)
VH: QVQLQQSGPELVKPGASVKISCKASGYSFTSYYIHWVKQRPGQGLEWIGWIYPGSGNSKYNEKFKGKATLTADTSSSTAYMQLSSLTSEDSAVYYCARDGSTYNWNFDVWGTGTTVTVSS
VL: DIQMTQSPASLSASVGETVTITCRTSGNIHNYLAWYQQKQGKSPQLLVYNAKTLADGVPSRFSGSGSGTQYSLKINSLQPEDFGSYYCQHFWSIPFTFGSGTKLEIKR
notes: they run a few residues into the constant regions; Biotinylated when used as capping antibody in the sandwich immunoassay; also called mAb 01D10
For B1, in assay [1], the binding result is on record as “no binding (tested: 100 µg/ml)”.

B2: mouse monoclonal anti-MIOX antibody 12H06 (antibody, IgG2b, V domains shown)
VH: QVQLQQPGAELVRPGTSVKLSCKASGYTFTSYWMHWVKQRPGQGLEWIGLIDPSDSYTNYNQKFKGKATLTVDTSSSTASMQLSSLTSEDSAVYYCVRTYYHSSYFFAYWGQGTLVTVSS
VL: DIVVTQSPASFAVSLGQRATISCRASKSVSTSGYSYINWYQQKPGQPPKLLIYLASNLESGVPARFSGSGSGTDFTLNIHPVEEEDAATYYCQHSRELPLTFGAGTRLELK
notes: the VH entry runs a few residues into CH1; also called mAb 12H06
Take B2: the results for the binding result in assay [2], in assay [3] and in assay [4] were “binds”, “no binding (tested: 100 µg/ml)” and “binds”, respectively.
